From patent publication US12312397B2, “Anti-O2 antibodies and uses thereof” (priority 2016, dated 2025)

B1: KPL26: Class II anti-O2 antigen human mAb; VH SEQ ID NO: 89, VL SEQ ID NO: 90 (antibody, V domains shown)
VH: EVQLVESGGGLVQSGGSLRLSCETSGFIFGSSWMTWVRQAPGKGLEWVATINPDGSATSYEDSVRGRFAVSRDNAKNSVYLQMNSLRAEDTAVYFCTRNKAYNALDYWGQGTLVTVSS
VL: QSALTQPPSASGSPGQSVTLSCTGTSSDVGGNNYVSWYQQHPGKAPKLIIYEVSKRPSGVPNRFSGSKSGNTASLTVSGLQAEDEADYYCSSFGGSKMFGGGTKLTVL
modifications: Description of Artificial Sequence: SyntheticKPL26 VH polypeptide; Description of Artificial Sequence: SyntheticKPL26 VL polypeptide
B2: KPN70: Class I anti-O2 antigen human mAb; VH SEQ ID NO: 44, VL SEQ ID NO: 45 (antibody, V domains shown)
VH: QVQLQESGPGLVKPSETLSLTCTVSGGSISTYYWNWIRQSPGKELEWIANIHQSGTTYYNPSLKSRVTMSVDTSKNQFSLKVISVTAADTAVYYCARESDDGYKWNYFDYWGQGTLVTVSS
VL: EIVLTQSPASLSLSPGERATLSCRASQIVTNYLAWYQHKPGQAPRLLIFDMSIRAAGIPARFSGSGSGTDFTLTISSLEPEDFAVYYCQHRSNWPLFTFGPGTKVDIK
modifications: Description of Artificial Sequence: SyntheticKPN70 VH polypeptide; Description of Artificial Sequence: SyntheticKPN70 VL polypeptide
B3: KPD1: Class I anti-O2 antigen human mAb; VH SEQ ID NO: 134, VL SEQ ID NO: 135 (antibody, V domains shown)
VH: QVQLQESDPRLVKPSETLSLTCSVSGVSITSNTYWWAWIRQPPGKKLEWIGSLSYSGDTYYNPSLTSRVTISRDIHQNQFFLELNSVTAADTAMYYCARDPDIIRNFQFDYWGRGTLVTVSS
VL: EIVLTQSPGILSLSPGERATLSCRVSQILYMSHLAWYQHKPGQAPRLLIYGASIRATGVPDRFSGSGSGTDFTLTISRLEPEDFAVYYCQQYGASPTFGQGTMVEIK
modifications: Description of Artificial Sequence: SyntheticKPD1 VH polypeptide; Description of Artificial Sequence: SyntheticKPD1 VL polypeptide

Key:
[1] = tested on: K. pneumoniae 43816ΔcpsBLux (O1); experiment: Opsonophagocytic killing (OPK) assay, O1 capsule mutant; format: cell-based, Klebsiella pneumoniae; parameters: key to D Capsule OPK O1: +++: Strongly positive activity; +: Positive activity; +/−: Somewhat positive depending upon the test conditions
Method: OPK activity of anti-O2 LPS mAbs was tested against O1 and O2 strains. Briefly, log phase cultures of luminescent K. pneumoniae strains 8570ΔcpsBLux (O2) and 43816ΔcpsBLux (O1) were diluted to ˜2×10^6 cells/ml. K. pneumoniae cells, 5e5/well dimethylformamide (DMF) differentiated HL-60 cells, cleared baby rabbit serum (1:10 Cedarlane), and a series dilution of antibodies (2 ng-2.5 μg/mL) were mixed in 96-well plates and incubated at 37° C. for two hours with shaking (250 rpm). The relative light units (RLUs) were then measured using a multi-mode microplate reader (Synergy 2, Biotek or envision multilabel plate reader, Perkin Elmer). The percentage of killing was determined by comparing RLU derived from assays with no antibodies to RLU derived from assays with anti-K. pneumoniae mAbs and assays performed with a negative control mAb. Positive killing was determined where the percentage of killing is above 40%.

[2] = tested on: K. pneumoniae 8570ΔcpsBLux (O2); experiment: Opsonophagocytic killing (OPK) assay, O2 capsule mutant; format: cell-based, Klebsiella pneumoniae; parameters: key to D Capsule OPK O2: +++: Strongly positive activity; +: Positive activity; +/−: Somewhat positive depending upon the test conditions; settings: for D Capsule OPK O2: capsule mutant strain 8570ΔcpsB lux (O2); for OPK activity against O2 capsule mutant: secondary screening
Summary of the method: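 Luminescent capsule-deficient K. pneumoniae strains were mixed with DMF-differentiated HL-60 cells, 1:10 baby rabbit serum and anti-O2 LPS mAbs (2 ng–2.5 μg/mL), then shaken for 2 h at 37 °C. Killing % came from luminescence (RLU) against no-antibody and negative-control mAb wells, with >40% scored as positive.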

K. pneumoniae O1 = experiment: Lethal O1 pneumonia model; format: in vivo, Klebsiella pneumoniae; parameters: key to Mouse protection models (O1): +++: Strongly positive activity; +: Positive activity; +/−: Somewhat positive depending upon the test conditions
Method: (§1) C57/BL6 mice were obtained from Jackson Laboratories and maintained in a special pathogen-free facility. All animal experiments were conducted in accordance with Institutional Animal Care and Use Committee (IACUC) protocol and guidance. K. pneumoniae strains were grown on agar plates overnight and diluted in saline at proper concentration. The inoculum titer was determined by plating a serial dilution of bacteria onto agar plates prior to and post challenge. In acute pneumonia models, C57/BL6 mice were inoculated with 1e4 to 2e8 colony-forming units (CFU) of K. pneumoniae clinical isolates in 50 μl saline intranasally. Anti-K pneumoniae monoclonal antibodies (mAbs) and human IgG1 control antibodies were given 1-24 hour post bacterial challenge (therapeutic dosing). Mouse survival was monitored daily until up to day 8. Survival data of representative experiments were plotted in Graphpad Prism software.
Mice were challenged with 2e8 CFU of Klebsiella pneumoniae Carbanpenemase (KPC) strain Kp961842_O2 or with 3e8 CFU of KPC strain Kp977778_O2, followed by the administration of anti-O2 mAbs. […]

KPC strain Kp961842_O2 = experiment: Lethal pneumonia model, KPC strain Kp961842_O2; format: in vivo, Klebsiella pneumoniae; settings: C57/BL6 mice, 2e8 CFU; mAb 2 mg/kg 1 hour post infection; survival
Method: as §1
(§2) Mice were challenged with 2e8 CFU of Klebsiella pneumoniae Carbanpenemase (KPC) strain Kp961842_O2 or with 3e8 CFU of KPC strain Kp977778_O2, followed by the administration of anti-O2 mAbs. When administered at a concentration of 2 mg/kg 1 hour post bacterial infection, Class III anti-O2 LPS mAbs KPN42, KPN179-IgG1, and KPS44v2017 protected mice from lethal bacterial challenge with the multi-drug resistant KPC strains Kp961842_O2 (FIG. 6, left panel, and FIG. 10) and Kp977778_O2 (FIG. 6B, right panel).

O2 LPS = experiment: ELISA binding to O2 LPS; parameters: species or system Klebsiella pneumoniae; settings: secondary screening, ELISA
Summary of the method: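 Serial dilutions of monoclonal antibodies bound to LPS-coated plates for 1 h at room temperature, detected with alkaline phosphatase-conjugated anti-human IgG (1 h) and pNPP substrate (30 min). Absorbance read at 405 nm; EC50 values derived from binding curves.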

O1 LPS [3] = experiment: ELISA binding to O1 LPS; parameters: species or system Klebsiella pneumoniae; settings: secondary screening
Method: The coated plates were incubated with cell culture supernatants from polyclonally stimulated lymphocytes (AMVBRA) or from monoclonal immortalized B cells (donor interrogations) containing fully human antibodies or with diluted plasma samples (PBMC donor selections) for 1 hour at room temperature. The plates were then washed with PBS containing 0.1% Tween-20 (PBS-T). Secondary antibody was added; either Alkaline Phosphatase-conjugated Goat Anti-Human IgG-AP (Southern Biotech, 2040-04, 1:1000 in PBS-B) or Peroxidase AffiniPure F(ab′)2 Fragment Goat Anti-Human IgG, Fc Fragment Specific (Jackson ImmunoResearch #309 036 098, 1:5000 in PBS-B) were used. Secondary antibodies were typically incubated for 1 h. Plates were washed three times with PBS-T, and P-NitroPhenyl Phosphate (pNPP, Sigma-Aldrich, cat #N2765-100TAB) or Sureblue (KPL, 53-00-03) substrates were added and incubated for 10 min or until the development of a colorimetric reaction. In the case of the HRP substrate Sureblue, the reaction was stopped by adding an equal volume of 0.2N HCl. The absorbance at 405 nm (pNPP) or 450 nm (Sureblue) was measured by a microplate reader (Biotek, Elx808).
The coated plates were incubated with serial dilutions of the monoclonal antibodies for 1 hour at room temperature. The plates were then washed with PBS containing 0.1% Tween-20 (PBS-T). Alkaline Phosphatase-conjugated Goat Anti-Human IgG (Southern Biotech, 2040-04, 1:1000 in PBS-B) was added. The secondary antibody reactions were incubated for 1 h. Plates were washed three times with PBS-T, and P-NitroPhenyl Phosphate (pNPP, Sigma-Aldrich, cat #N2765-100TAB) substrate was added and incubated for 30 min or until the development of a colorimetric reaction. The absorbance at 405 nm was measured by a microplate reader (Biotek, Elx808). The data was plotted with Graphpad Prism software. Representative mAbs from each class were tested for their binding to O1 LPS (FIG. 2A) and O2 LPS (FIG. 2B), and EC50 values were obtained (FIG. 2C). The majority of the anti-O2 LPS mAbs bound to both O1 and O2 LPS by ELISA. […] None of these LPS mAbs bound to the 03, 04, 05, 07, or 012 LPS serotypes (see e.g., FIG. 1A).

[4] = tested on: O2 LPS activation of NF-κB in RAW264.7-lux cells; experiment: LPS neutralization assay (NF-κB luciferase, RAW264.7-lux), O2 LPS; format: cell-based, murine; parameters: key to LPS Neut O2: +++: Strongly positive activity; +: Positive activity; +/−: Somewhat positive depending upon the test conditions; settings: for neutralizing activity against O2 LPS (NF-κB activation): human IgG1 format; for neutralization of LPS-O2: secondary screening
Summary of the method: (§3)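 Serially diluted mAbs (human IgG1) pre-mixed 1:1 with LPS at 4 °C for 1 hr, then diluted 1:10 onto RAW264.7-lux cells carrying an NF-κB-driven firefly luciferase; 2.5 h at 37 °C. Luminescence read; % inhibition relative to no-antibody and negative-control mAb wells.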

[5] = tested on: O1 LPS activation of NF-κB in RAW264.7-lux cells; experiment: LPS neutralization assay (NF-κB luciferase, RAW264.7-lux), O1 LPS; format: cell-based, murine; parameters: key to LPS Neut O1: +++: Strongly positive activity; +: Positive activity; +/−: Somewhat positive depending upon the test conditions; settings: for neutralizing activity against O1 LPS (NF-κB activation): human IgG1 format; for neutralization of LPS-O1: secondary screening
Summary of the method: as §3

K. pneumoniae O1/O2 = experiment: Mouse protection models (O1/O2), Table 7 summary; format: in vivo, Klebsiella pneumoniae; parameters: key: +++: Strongly positive activity; +: Positive activity; +/−: Somewhat positive depending upon the test conditions; settings: mouse pneumonia models
Method: As described in more detail in below, anti-O2 LPS mAbs were tested for: 1) binding to O1 and O2 LPS (see Example 5); 2) LPS neutralization (LPS-Neut) against O1 and O2 LPS (see Example 7); 3) OPK against capsule mutant strain 43816ΔcpsB lux (O1) and 8570ΔcpsB lux (O2) (see Example 8); and 4) protective activity in pneumonia models (see Example 9). O2 LPS mAbs were subsequently divided into three classes based on their in vitro activities. Class I mAbs were characterized as Binding (O1+O2+)/OPK (O1−O2+); Class 2 mAbs were characterized as Binding (O1+O2+)/OPK (O1+O2+); and Class III mAbs were characterized as Binding (O1±O2+)/OPK (O1−O2+).
as §1, with “Anti-K pneumoniae monoclonal antibodies (mAbs) and human IgG1 control antibodies were given 1-24 hour post bacterial challenge (therapeutic dosing).” left out, “Survival data of representative experiments were plotted in Graphpad Prism software.” left out

KPC strain Kp977778_O2 = experiment: Lethal pneumonia model, KPC strain Kp977778_O2; format: in vivo, Klebsiella pneumoniae; settings: C57/BL6 mice, 3e8 CFU; mAb 2 mg/kg 1 hour post infection; survival
Method: as §1, §2

O1 LPS [6] = experiment: Western blot of purified Klebsiella LPS serotypes, O1 LPS; format: binding, Klebsiella pneumoniae; settings: FIG. 1A
From the text: FIGS. 1A-B show the expansion of the O2 LPS serotype in multi-drug resistant (MDR) strains of Klebsiella pneumoniae.
SDS-PAGE analysis followed by Silver Stain confirmed the purity of LPS. Human antibodies against O2 serotypes were then identified based on the reactivity of human B cells against the respective purified LPS. […] (FIG. 1A).

| Molecule | OPK activity against O1 strain ([1]; 43816ΔcpsBLux (O1), positive killing above 40%) | D Capsule OPK O1 ([1]; capsule mutant strain 43816ΔcpsB lux (O1)) | OPK activity against O1 capsule mutant ([1]; secondary screening) | OPK activity against O2 strain ([2]; 8570ΔcpsBLux (O2), positive killing above 40%) | D Capsule OPK O2 [2] | OPK activity against O2 capsule mutant [2] | protection in lethal O1 pneumonia model (K. pneumoniae O1; mice, survival) | Mouse protection models (O1) (K. pneumoniae O1; mouse pneumonia model, O1) | protection from lethal bacterial challenge, Kp961842_O2 (KPC strain Kp961842_O2) | binding to LPS-O2 (O2 LPS) | binding to LPS-O1 (O1 LPS [3]) | LPS Neut O2 ([4]; Table 7 summary) | neutralizing activity against O2 LPS (NF-κB activation) [4] | neutralization of LPS-O2 [4] | LPS Neut O1 ([5]; Table 7 summary) | neutralizing activity against O1 LPS (NF-κB activation) [5] | neutralization of LPS-O1 [5] | Mouse protection models (O1/O2) (K. pneumoniae O1/O2) | protection from lethal bacterial challenge, Kp977778_O2 (KPC strain Kp977778_O2) | cross-reactivity with O1 LPS (O1 LPS [6]) |
| --- | --- | --- | --- | --- | --- | --- | --- | --- | --- | --- | --- | --- | --- | --- | --- | --- | --- | --- | --- | --- |
| B1 | induced OPK activity | + | showed OPK activity | induced OPK activity | + | showed OPK activity | moderate protection | + | did not show protection | confirmed to bind | confirmed to bind | + | blocked | neutralize | + | blocked | neutralize |  |  |  |
| B2 |  |  |  |  | +++ |  |  |  | did not protect |  |  |  | blocked | neutralize |  | blocked | neutralize | +/− | did not protect |  |
| B3 |  |  |  |  |  | showed OPK activity |  |  | did not protect | showed binding | showed binding |  | blocked | neutralized |  | blocked | neutralized |  | did not protect | showed cross-reactivity with O1 LPS |
